Among the data in article PMC4183468 are Kd values, retold here.

pKd: −log10 of the molar value.

The assay addresses VE-cadherin (Human CD-144, cadherin-5) (human) (UniProt P33151). The assay is described as follows: ELISA; 0.01 µM VE-cadherin or control BSA coated on Linbro plate wells in HBSC overnight at 4°C, blocked with 1% BSA in DMEM; MBP fusions added for 1 hr; detected with anti-MBP antibody, OD655; VE-cadherin signal minus BSA and plastic binding. On the technique in general: In an ELISA, binding on a coated surface is turned into a signal by an enzyme label.
Sequence of UniProt P33151 (P33151 48-599): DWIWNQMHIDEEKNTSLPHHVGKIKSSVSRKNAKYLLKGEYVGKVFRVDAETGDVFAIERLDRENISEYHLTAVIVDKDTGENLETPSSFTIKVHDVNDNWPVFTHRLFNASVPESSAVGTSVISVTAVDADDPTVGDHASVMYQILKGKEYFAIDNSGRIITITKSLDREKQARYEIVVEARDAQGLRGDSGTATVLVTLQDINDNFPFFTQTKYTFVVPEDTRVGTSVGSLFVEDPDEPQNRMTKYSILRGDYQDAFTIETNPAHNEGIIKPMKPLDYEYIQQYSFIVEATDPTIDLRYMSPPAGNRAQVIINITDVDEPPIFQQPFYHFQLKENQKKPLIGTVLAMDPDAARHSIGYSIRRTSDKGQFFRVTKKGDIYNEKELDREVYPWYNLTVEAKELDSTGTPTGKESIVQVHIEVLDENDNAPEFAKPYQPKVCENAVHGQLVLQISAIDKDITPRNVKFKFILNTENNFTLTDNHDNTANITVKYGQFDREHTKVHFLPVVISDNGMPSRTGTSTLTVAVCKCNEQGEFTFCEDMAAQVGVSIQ

“MBP fusion of L. interrogans candidate adhesin LIC11574 (natural protein)”: the pKd – broadly, the negative decadic logarithm of the Kd, by convention in mol/L – was 8.12.

“MBP fusion of L. interrogans candidate adhesin LIC13411 (natural protein)” had a negative-log Kd (pKd) of 9.40. This pKd is 1.28 log units higher than that of the substance before.
